Measurements from US20260035433A1.

Biological target: His-Tagged rhFc(gamma) receptor I (recombinant human Fc(gamma)R-I; Acro Biosystems, catalog# FCA-H52H1) (human)
Assay: ELISA, control IgG coated, His-tagged rhFc(gamma)RI in solution, anti-His-HRP

Chain of His-Tagged rhFc(gamma) receptor I (recombinant human Fc(gamma)R-I; Acro Biosystems, catalog# FCA-H52H1) (human) (P12314 16-292): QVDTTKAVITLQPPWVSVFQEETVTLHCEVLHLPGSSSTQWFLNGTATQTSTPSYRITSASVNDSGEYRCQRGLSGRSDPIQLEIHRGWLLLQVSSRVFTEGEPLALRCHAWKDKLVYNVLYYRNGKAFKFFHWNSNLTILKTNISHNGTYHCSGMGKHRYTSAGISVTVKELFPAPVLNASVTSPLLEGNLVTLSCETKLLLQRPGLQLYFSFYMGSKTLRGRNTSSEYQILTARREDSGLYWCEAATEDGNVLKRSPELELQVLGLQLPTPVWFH

Dog IgG, Control Rockland-Inc, Cat# 004-0102-005 (antibody)
OD450 at 222 ng/ml Fc(gamma) RI: 0.686 OD450
